Measured values: PMC11257983 (2024)

B1: Flag-CNK^2–549 [Drosophila] / GST-HYP [Drosophila] (parent complex)
chain 1: AYINIAEWTPDQVTDWIKGLDESMKGYLYEFSKQEIGGRALLNIRPYELENLGMLRIGHQEIVLEAVENLRNFHYHLKNDNLQFMALHVATAAKNLHRELARNHAESTKIDTRILHDITRTIATLKPLVGSLERTPFRKQEMYREYCGNVLKCGLELATIAHRDRFALQPVPAIRQSAERLENLANFVIQDISDPMVLQPASLNLVTLKKRESELGFNIESSYNGIHRVTDIKYNSPAHNSGKIEDGDEIVQINYQTVVGWQHRTVLEHLREALPDVVLTVKKRPKHTKMFGQIYMQPYRLPSKKRNMAARWAAQMPSPRAAFLTLDTEQLATGGTGSAVPDPSKSLSSEKREVLTKANPVSSASDSDSSCSDIPTPTDPKLAAREIRLYYPKPRALLQRRNTICGCEYLSLKNSDLVVPSWHERKPGIGSPTNCDPGSPSIRDKSISFGYGLEMAARPTTCIGIAGDTSTDKARRMFHEARKLKQLTEDSQREFLVDRYKPGVSKVVRFDAKEDYVMKNEKFICNVENTILETFEPIPFADEGDEDA
chain 2: MGEETINSTQNKTRTKTTRPKAVYLWTVSDVLKWYRRHCGEYTQYEQLFAQHDITGRALLRITDSSLQRMGVTDNRDREAIWREIVKQRLKTDIMEIRDMERLNIY

Variants of: B1
Experiment: GST pull-down, immunoblot quantification; S2 cells; GST-HYP + RRKM co-expressed; anti-Flag (CNK) blot; parent: 1

| Variant | ratio to parent |
| --- | --- |
| chain 1 AYINIAEWTPDQVTDWIKGLDESMKGYLYEFSKQEIGGRALLNIRPYELENLGMLRIGHQEIVLEAVENLRNRHYHLKNDNLQFMALHVATAAKNLHRELARNHAESTKIDTRILHDITRTIATLKPLVGSLERTPFRKQEMYREYCGNVLKCGLELATIAHRDRFALQPVPAIRQSAERLENLANFVIQDISDPMVLQPASLNLVTLKKRESELGFNIESSYNGIHRVTDIKYNSPAHNSGKIEDGDEIVQINYQTVVGWQHRTVLEHLREALPDVVLTVKKRPKHTKMFGQIYMQPYRLPSKKRNMAARWAAQMPSPRAAFLTLDTEQLATGGTGSAVPDPSKSLSSEKREVLTKANPVSSASDSDSSCSDIPTPTDPKLAAREIRLYYPKPRALLQRRNTICGCEYLSLKNSDLVVPSWHERKPGIGSPTNCDPGSPSIRDKSISFGYGLEMAARPTTCIGIAGDTSTDKARRMFHEARKLKQLTEDSQREFLVDRYKPGVSKVVRFDAKEDYVMKNEKFICNVENTILETFEPIPFADEGDEDA [chain 1 F73R] | 0.94 |
| chain 1 AYINIAEWTPDQVTDWIKGLDESMKGYLYEFSKQEIGGRALLNIRPYELENLGMLRIGHQEIVLEAVENLRNFHYHLKNDNLQFMALHVATAAKNLHRELARNHAESTKIDTRILHDITRTIATLKPLVGSLERTPFRKQEMYREYCGNVLKCGLELATIAHRDRFALQPVPAIRQSAERLENLANFVIQDISDPMVLQPASLNLVTLKKRESELGFNIESSYNGIHRVTDIKYNSPAHNSGKIEDGDEIRQINYQTVVGWQHRTVLEHLREALPDVVLTVKKRPKHTKMFGQIYMQPYRLPSKKRNMAARWAAQMPSPRAAFLTLDTEQLATGGTGSAVPDPSKSLSSEKREVLTKANPVSSASDSDSSCSDIPTPTDPKLAAREIRLYYPKPRALLQRRNTICGCEYLSLKNSDLVVPSWHERKPGIGSPTNCDPGSPSIRDKSISFGYGLEMAARPTTCIGIAGDTSTDKARRMFHEARKLKQLTEDSQREFLVDRYKPGVSKVVRFDAKEDYVMKNEKFICNVENTILETFEPIPFADEGDEDA [chain 1 V251R] | 0.68 |
| chain 1 AYINIAEWTPDQVTDWIKGLDESMKGYLYEFSKQEIGGRALLNIRPYELENLGMLRIGHQEIVLEAVENLRNRHYHLKNDNLQFMALHVATAAKNLHRELARNHAESTKIDTRILHDITRTIATLKPLVGSLERTPFRKQEMYREYCGNVLKCGLELATIAHRDRFALQPVPAIRQSAERLENLANFVIQDISDPMVLQPASLNLVTLKKRESELGFNIESSYNGIHRVTDIKYNSPAHNSGKIEDGDEIRQINYQTVVGWQHRTVLEHLREALPDVVLTVKKRPKHTKMFGQIYMQPYRLPSKKRNMAARWAAQMPSPRAAFLTLDTEQLATGGTGSAVPDPSKSLSSEKREVLTKANPVSSASDSDSSCSDIPTPTDPKLAAREIRLYYPKPRALLQRRNTICGCEYLSLKNSDLVVPSWHERKPGIGSPTNCDPGSPSIRDKSISFGYGLEMAARPTTCIGIAGDTSTDKARRMFHEARKLKQLTEDSQREFLVDRYKPGVSKVVRFDAKEDYVMKNEKFICNVENTILETFEPIPFADEGDEDA [chain 1 F73R, chain 1 V251R] | 0.61 |

Variants of: B1
Experiment: GST pull-down, immunoblot quantification; S2 cells; only Flag-CNK2–549 and GST-HYP co-expressed; anti-Flag blot; parent: 1

| Variant | ratio to parent |
| --- | --- |
| chain 1 AYINIAEWTPDQVTDWIKGLDESMKGYLYEFSKQEIGGRALLNIRPYELENLGMLRIGHQEIVLEAVENLRNRHYHLKNDNLQFMALHVATAAKNLHRELARNHAESTKIDTRILHDITRTIATLKPLVGSLERTPFRKQEMYREYCGNVLKCGLELATIAHRDRFALQPVPAIRQSAERLENLANFVIQDISDPMVLQPASLNLVTLKKRESELGFNIESSYNGIHRVTDIKYNSPAHNSGKIEDGDEIVQINYQTVVGWQHRTVLEHLREALPDVVLTVKKRPKHTKMFGQIYMQPYRLPSKKRNMAARWAAQMPSPRAAFLTLDTEQLATGGTGSAVPDPSKSLSSEKREVLTKANPVSSASDSDSSCSDIPTPTDPKLAAREIRLYYPKPRALLQRRNTICGCEYLSLKNSDLVVPSWHERKPGIGSPTNCDPGSPSIRDKSISFGYGLEMAARPTTCIGIAGDTSTDKARRMFHEARKLKQLTEDSQREFLVDRYKPGVSKVVRFDAKEDYVMKNEKFICNVENTILETFEPIPFADEGDEDA [chain 1 F73R] | 0.91 |
| chain 1 AYINIAEWTPDQVTDWIKGLDESMKGYLYEFSKQEIGGRALLNIRPYELENLGMLRIGHQEIVLEAVENLRNFHYHLKNDNLQFMALHVATAAKNLHRELARNHAESTKIDTRILHDITRTIATLKPLVGSLERTPFRKQEMYREYCGNVLKCGLELATIAHRDRFALQPVPAIRQSAERLENLANFVIQDISDPMVLQPASLNLVTLKKRESELGFNIESSYNGIHRVTDIKYNSPAHNSGKIEDGDEIRQINYQTVVGWQHRTVLEHLREALPDVVLTVKKRPKHTKMFGQIYMQPYRLPSKKRNMAARWAAQMPSPRAAFLTLDTEQLATGGTGSAVPDPSKSLSSEKREVLTKANPVSSASDSDSSCSDIPTPTDPKLAAREIRLYYPKPRALLQRRNTICGCEYLSLKNSDLVVPSWHERKPGIGSPTNCDPGSPSIRDKSISFGYGLEMAARPTTCIGIAGDTSTDKARRMFHEARKLKQLTEDSQREFLVDRYKPGVSKVVRFDAKEDYVMKNEKFICNVENTILETFEPIPFADEGDEDA [chain 1 V251R] | 0.07 |
| chain 1 AYINIAEWTPDQVTDWIKGLDESMKGYLYEFSKQEIGGRALLNIRPYELENLGMLRIGHQEIVLEAVENLRNRHYHLKNDNLQFMALHVATAAKNLHRELARNHAESTKIDTRILHDITRTIATLKPLVGSLERTPFRKQEMYREYCGNVLKCGLELATIAHRDRFALQPVPAIRQSAERLENLANFVIQDISDPMVLQPASLNLVTLKKRESELGFNIESSYNGIHRVTDIKYNSPAHNSGKIEDGDEIRQINYQTVVGWQHRTVLEHLREALPDVVLTVKKRPKHTKMFGQIYMQPYRLPSKKRNMAARWAAQMPSPRAAFLTLDTEQLATGGTGSAVPDPSKSLSSEKREVLTKANPVSSASDSDSSCSDIPTPTDPKLAAREIRLYYPKPRALLQRRNTICGCEYLSLKNSDLVVPSWHERKPGIGSPTNCDPGSPSIRDKSISFGYGLEMAARPTTCIGIAGDTSTDKARRMFHEARKLKQLTEDSQREFLVDRYKPGVSKVVRFDAKEDYVMKNEKFICNVENTILETFEPIPFADEGDEDA [chain 1 F73R, chain 1 V251R] | 0.04 |
